This assay has as its target NUDT5 (Homo sapiens, UniProt Q9UKK9, dNUDT5 ternary complex, engineered CRBNmidi). Put plainly: proximity binding assay.

The text below walks through data of article PMC13462928 (2026).

B1: CRBNmidi (protein)
chain: MAGEGDQQDAAHNMGNHLPLLPAESEEEDEMEVEDQDSKEAKKPNIINFDTSLPTSHTYLGADMEEFHGRTLHDDDSCQVIPVLPQVMMILIPGQTLPLQLFHPQEVSMVRNLIQKDRTFAVLAYSNVQEREAQFGTTAEIYAYREEQDFGIEIVKVKAIGRQRFKVLELRTQSDGIQQAKVQILPECVLPSTMSAVQLESLNKCQIFPSKPVSREDQCSYKWWQKYQKRKFHCANLTSWPRWLYSLYDAETLMDRIKKQLREWDENLKDDSLPSNPIDFSYRVAACLPIDDVLRIQLLKIGSAIQRLRCELDIMNKCTSLCCKQCQETEITTKNEIFSLSLCGPMAAYVNPHGYVHETLTVYKACNLNLIGRPSTEHSWFPGYAWTVAQCKICASHIGWKFTATKKDMSPQKFWGLTRSALLPTIPDTEDEISPDKVILCL
For B1, the Kd was 0.34 nM.

As usually defined, the Kd is the free concentration of one partner at which half of the binding sites on the other are occupied at equilibrium, for simple one-to-one binding.
